Values joined by “and” are separate entries in the source; they are usually repeats but may differ in a detail not shown here. Equal entries are not always repeated. *1 amine or outer side, *2 acyl side, *3 side chain or, on linkers, in order; H or OH if unused. Bridges are numbered along the chain shown (N, C = ends). Where no end group is shown, it is not given here. Lys(Aoa) = NOCC(=O)NCCCC[C@H](N[*:1])C(=O)[*:2]
Assays:
[1] = biological target: T1, Human LRP-8 (isoform 3) expressed on cells (human, UniProt Q14114 33-963); test: cell-based binding assay, hLRP8
T1 construct: also called hLRP-8; huLRP-8
T1 sequence (Q14114 other isoform, or with tags, fused parts or gaps limits assumed): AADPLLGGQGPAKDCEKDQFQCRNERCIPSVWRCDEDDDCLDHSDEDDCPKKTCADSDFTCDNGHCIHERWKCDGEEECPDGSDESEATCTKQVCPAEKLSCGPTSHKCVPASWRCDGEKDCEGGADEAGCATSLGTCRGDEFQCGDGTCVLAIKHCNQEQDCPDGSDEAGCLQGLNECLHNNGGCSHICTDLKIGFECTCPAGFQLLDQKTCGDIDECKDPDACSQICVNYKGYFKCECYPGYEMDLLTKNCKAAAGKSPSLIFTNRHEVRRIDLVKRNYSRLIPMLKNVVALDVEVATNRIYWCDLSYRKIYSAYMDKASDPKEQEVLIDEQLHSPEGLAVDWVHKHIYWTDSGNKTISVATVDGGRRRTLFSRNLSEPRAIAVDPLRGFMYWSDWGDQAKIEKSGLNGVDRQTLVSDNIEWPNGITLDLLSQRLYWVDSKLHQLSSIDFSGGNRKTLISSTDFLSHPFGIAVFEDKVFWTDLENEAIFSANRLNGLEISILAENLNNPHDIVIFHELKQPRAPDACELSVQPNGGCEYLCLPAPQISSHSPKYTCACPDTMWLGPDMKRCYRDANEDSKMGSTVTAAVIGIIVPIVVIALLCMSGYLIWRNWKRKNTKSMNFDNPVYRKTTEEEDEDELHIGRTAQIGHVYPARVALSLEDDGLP

[2] = biological target: T2, Cynomolgus monkey LRP-8 expressed on HEK293 cells (cynomolgus monkey); test: cell-based binding assay, cynoLRP8
T2 construct: whole, on cells; also called cyno LRP-8; cLRP-8

[3] = biological target: T1, Human LRP-8 (isoform 3) expressed on …; test: cell-based ECL-MSD, 10 ug/ml Ab, human_LRP-8_HEK293
Description: (§1) A cell-based ECL-MSD binding assay was used to determine antibody affinity. HEK293 cells overexpressing human, monkey or mouse LRP-8 were added onto MSD 96-well plate (MSD Cat# L15XB-3/L11XB-3) and incubated at 37° C. for one hour. Cells were blocked using 15% FBS (Hyclone, Thermo Scientific Cat# SH300700.03) at RT for 30 minutes with mild agitation. Plates were washed with DPBS three times and Abs or DVD-Ig binding proteins were added to the well. After incubation at RT for one hour, plates were washed with DPBS and goat anti-human or anti-mouse Sulfo TAG (MSD Cat#R32AJ-1) was added. Plates were incubated at RT for one hour, washed with DPBS and immersed in MSD read buffer (MSD Cat#R92TD-2) before reading on a MSD SECTOR Imager 6000. EC50 values were obtained using Xlfit4 software system.

[4] = biological target: T1, Human LRP-8 (isoform 3) expressed on …; test: cell-based or functional assay
[5] = biological target: T2, Cynomolgus monkey LRP-8 expressed on …; test: cell-based ECL-MSD, 10 ug/ml Ab, cyno-LRP-8-HEK293
Description: as §1

[6] = biological target: T3, CR1 cyclic peptide of human LRP-8 (human, disulfide 1-13); test: ELISA using CR1 peptide
T3 construct: also called CR1 peptide; conjugated human LRP-8 CR1 peptide
T3 peptide: CEKDQFQSRNERCIPSVWR-{Lys(Aoa)-NH2}

[7] = biological target: T2, Cynomolgus monkey LRP-8 expressed on …; test: FACS, cyno LRP8 cells
[8] = biological target: T2, Cynomolgus monkey LRP-8 expressed on …; test: cell-based binding on CYNO LRP8-HEK293, supernatant 1:5
[9] = biological target: T2, Cynomolgus monkey LRP-8 expressed on …; test: cell-based binding on CYNO LRP8-HEK293, supernatant 1:25
[10] = biological target: T2, Cynomolgus monkey LRP-8 expressed on …; test: cell-based binding on CYNO LRP8-HEK293, supernatant 1:125
[11] = biological target: T1, Human LRP-8 (isoform 3) expressed on …; test: cell-based MSD-ECL binding on cells overexpressing human LRP-8 variant 3 (hLRP8 assay)
Description: as §1

[12] = biological target: T2, Cynomolgus monkey LRP-8 expressed on …; test: cell-based MSD-ECL binding on cells overexpressing cyno LRP-8 variant 1 (cynoLRP8 assay)
Description: as §1

B1: anti-LRP-8 BGK-7A11 chimeric antibody (CL-105959) (antibody, V domains shown)
VH: QVTLKESGPGILQPSQTLSLTCTFSGFSLSTYGMGVGWIRQPAGTGLEWLANIWWDDDKYYNPSLKNRLTISKDTSNNQVFLKITNVDTADTATYYCARTTKPYYFDYWGQGVMVTVSS
VL: HFVLAQPNSVSTNLGSTVKLSCKRSTGNSGSNYVNWYQQYEGRSPTTMIYRDDKRPDGVPDRFSGSIDRSSNSALLTINNVQTEDEADYFCQSYSSGINIFGGGTKLTVL
An EC50 [1] of 0.12 nM and an EC50 [2] of 0.53 nM were found for B1 in this work.

B2: anti-LRP-8 BGK-6B5-2 chimeric antibody (CL-105969) (antibody, V domains shown)
VH: QVSLQESGPGILQPSQTLSLTCTFSGFSLSTFGMGVGWIRQPSGKGLEWLANIWWDDDKYYNPSLKNRLTISKDTSNNQAFLKITNVDTADTATYYCARTAKPYYFDYWGHGVMVTVSS
VL: HFVLAQPNSVSTNLGNTVKLSCKRSTGNIGSNYVNWYQQHEGRSPTTLIYRDDKRPDGVPDRFSGSFDRSSNSALLTINNVQTEDEADYFCQSYNSGINFFGGGTKLTVL
An EC50 [1] of 0.15 nM and an EC50 [2] of 0.51 nM were found for B2 in this work.

B3: anti-LRP-8 BGK-7F7 chimeric antibody (CL-105960) (antibody, V domains shown)
VH: QVTLKESGPGILQPSQTLSLTCTFSGFSLSTYGLGVGWIRQPSGKGLEWLANIWWDDAKYYNPSLKNRLTISKDTSNNQAFLKIPNVDTADTARYYCARTTKPYYFDYWGQGVMVTVSS
VL: HFVLAQPNSVSTNLGSTVKLSCKRSTANIGSNYVNWYQQHEGRSPTTLIYRDDRRPDGVPDRFSGSIDRSSNSALLTINNVQTEDEADYFCQSYSSGINIFGGGTKLTVL
An EC50 [1] of 0.11 nM and an EC50 [2] of 0.35 nM were found for B3 in this work.

B4: anti-LRP-8 ML201-8F3.3D7 murine antibody (muFc) (antibody, V domains shown)
VH: EVQLVESGGDLVKPGGSLKLSCAASRFTFSNFGMSWVRQTPDKRLEWVATISSGGRYTYYPDSVKGRFTISRDNAKNTLYLQMSSLRSEDTAMYYCARDYLYAMDYWGQGTSVTVSS
VL: DVVMTQTPLSLPVSLGDQASISCRSSQSLVYSNGNTYLHWYLQKPGQSPKVLMYKVSNRFSGVSDRFSGSGSGTDFTLKISRVEAEDLGVYFCSQSTHVPLTFGAGTKLELK
notes: Mouse Fc form; also called ML201-8F3-3D7 muFc; CL-33866
In the case of B4, the “fold over mIgG control” value [3] is reported as 13.6 fold, the “Endocytosis, fold over IgG control” value [4] is reported as 1.6 fold and the “Transcytosis, fold over IgG control” value [4] is reported as 1.08 fold. For the same binder, the “fold over mIgG control” value [5] was 5.2 fold.

B5: chimeric anti-LRP-8 ML201-8F3.3D7 antibody (antibody, V domains shown)
VH: EVQLVESGGDLVKPGGSLKLSCAASRFTFSNFGMSWVRQTPDKRLEWVATISSGGRYTYYPDSVKGRFTISRDNAKNTLYLQMSSLRSEDTAMYYCARDYLYAMDYWGQGTSVTVSS
VL: DVVMTQTPLSLPVSLGDQASISCRSSQSLVYSNGNTYLHWYLQKPGQSPKVLMYKVSNRFSGVSDRFSGSGSGTDFTLKISRVEAEDLGVYFCSQSTHVPLTFGAGTKLELK
notes: also called ML201.8F3.3D7 hFc; CL-33866
An EC50 [1] of 0.16 nM was found for B5 in this work.

B6: anti-LRP-8 BGK-2H4 chimeric antibody (CL-105945) (antibody, V domains shown)
VH: EVQLVESGGGLVQPGRSMKLSCAASGFTFSSFPMAWVRQAPTKGLEWVATVSTRGGHTYYRDSVKGRFTISRDNAKNTLYLQMNSLRSEDTATYYCIREGTSLFAYWGQGTLVTVSS
VL: DIQMTQSPPSLSASLGETVSIECLASEDISNYLAWYQQKPGKSPQLLIYYANSLEDGVPSRFSGSGSGTQYSLKISNMQPEDEGVYHCQQGYNYPYTFGAGTKLELK
An EC50 [1] of 0.21 nM and an EC50 [2] of 1.08 nM were found for B6 in this work.

B7: anti-LRP-8 antibody CL-135325 (antibody, V domains shown)
VH: EVQLVQSGGGLVQPGGSLRLSCAASGFTFSIYAMSWVRQAPGKGLEWVSVISCSAGSTYYADSVKGRFTISRDNSKNTLYLQMNSLRAEDTAVYYCARHSVHEEFPFDVWGQGTLVTVSS
VL: DIQMTQSPSSLSASVGDRVTITCRASQSIGSYLNWYQQKPGKAPKLLIYAASSLQSGVPSRFSGSGSGTDFTLTISSLQPEDFATYYCQQSYIPPLTFGGGTKVEIK
With B7 the OD450 [6] was 0.17 OD450 and the “FACS (ratio +/-)” value [7] was 16.5 ratio.

B8: anti-LRP-8 antibody CL-135359 (antibody, V domains shown)
VH: EVQLVQSGGGLVQPGGSLRLSCAASGFTFSSYAMSWVRQAPGKGLEWVSVISCSGGTTYYADSVKGRFTISRDNSKNTLYLQMNSLRAEDTAVYYCARNGGQFDLWGQGTLVTVSS
VL: DIQMTQSPSSLSASVGDRVTITCRASQGICTYLNWYQQKPGKAPKLLIYAASSLQSGVPSRFSGSGSGTDFTLTISSLQPEDFATYYCQQSYNPPLTFGGGTKVEIK
B8 was tested, and the OD450 [6] was 0.1 OD450 and the “FACS (ratio +/-)” value [7] was 12.6 ratio.

B9: anti-LRP-8 BGK.5D10.E4 [r/m IgG2a/K] (antibody, V domains shown)
VH: QVQLRETGPDLVQPTQTLSLTCTVSGFSLTNYPVQWVRQPPGSGLEWLGIMWPSGAADFNPALKSRLSISRDTSKSQFFLRMDNLQTDDTAIYFCARGRGYSSPYAMDAWGQGTSVTVSS
VL: DIQMTQSPASLSASLGETVSIECLASEDIYNNLAWYQQKPGKSPHLLIHFTSNLQDGVPSRFSGSGSGTQYSLKINSLESEDGATYFCLQDSEYPLTFGSGTKLEIK
notes: Rat variable domains on mouse IgG2a/kappa
B9 was tested, and the “fold over isotype control” value [8] was 5.85 fold, the “fold over isotype control” value [9] was 30.2 fold and the EC50 [1] was 0.24 nM. The “fold over isotype control” value [10] was 28.2 fold and the EC50 [2] was 0.77 nM.

B10: anti-LRP-8 antibody ab58216 (mFc) (antibody, V domains shown)
VH: EVHLQQSGPEVVKPGASVKISCKASGYIISGYFLNWVKQSHGKSLEWVGRINPYSGDTFFNQKFKGKATLTVDKSSNTAHMELRSLTSEDSAVFYCAREDIGRFAYWGQGTLVTVSA
VL: DVLMTQTPLSLPVSLGDQASISCRSSQTIVHSNGNTYLEWYLQKPGQSPKLLIYKVSNRFSGVPDRFSGSGSGTDFTLKISRVEAEDLGVYYCFQGSHAPPTFGGGTKLEIK
notes: Mouse Fc form
For B10, the “fold over mIgG control” value [3] was 17.3 fold, the “Endocytosis, fold over IgG control” value [4] was 2.6 fold and the “Transcytosis, fold over IgG control” value [4] was 1.53 fold. The “fold over mIgG control” value [5] was 1.2 fold.

B11: anti-LRP-8 ML201-2B4.2B1.2H10 murine antibody (muFc) (antibody, V domains shown)
VH: DVKLVASGGGLVKPGGSLKLSCAASGFTLSRYAMSWVRQTPEKRLEWVAYIRNGGDYIYYADTVKGRFTISRDNARNTLYLQMSSLKSEDTAMYYCTREGSYYNFDYWGQGTTLTVSS
VL: DVLMTQTPLSLPVSLGDQASISCRSSQSIVHSNGNTYLEWYLQKPGQSPNLLIFKVSNRFSGVPDRFIGSGSGTDFTLKISRVEAEDLGVYYCFQGSHVPWTFGGGTKLEIK
notes: Mouse Fc form; also called ML201-2B4.2B1.2H10 muFc; CL-33867
B11 was tested, and the “fold over mIgG control” value [3] was 14.2 fold, the “Endocytosis, fold over IgG control” value [4] was 1.8 fold and the “Transcytosis, fold over IgG control” value [4] was 1.44 fold. The “fold over mIgG control” value [5] was 2.8 fold.

B12: anti-LRP-8 BGK-2C8.8C antibody (antibody, V domains shown)
VH: EVQLVESGGGLVQPGRSLKLSCAASGFTVSDYYMAWVRQAPKKGLEWVASISYEGSSTYYGDSVKGRFTISRDNAKSILYLQMNSLRSEDTATYYCARPLRYYGYNYRFAYWGQGTLVTVSS
VL: DIQMSQSPPVLSASVGDRVTLSCKASQNIHKNLDWYQQKHGEAPKLLIYYTDNLQTGIPSRFSGSGSGTDYTLTISSLQPEDVATYYCYQYNSGPTFGAGTKLELQ
B12 was tested, and the EC50 [11] was 0.55 µg/mL and 2.75 nM, the EC50 [1] was 2.62 nM and the EC50 [2] was 0.82 nM. The EC50 [12] was 0.0881 µg/mL and 0.44 nM.

B13: anti-LRP-8 BGK-9D10-2 antibody (CL-105967) (antibody, V domains shown)
VH: EVQLVESGGGLVQSGRSLKLSCAASGFTFSNYYMAWVRQAPKKGLEWVATITTSGSRSFYPDSVKGRFTISRDNAKSSLYLQINSLKSEDTATYYCARRGPLGYFDHWGRGVMVTVSS
VL: DIQMTQSPPSLPASLGDKVTITCQASQNINKYIAWYQQKPGKAPRLLIRFTSTLESDTPSRFSGSGSGRDYSFSISNVESEDFASYYCLHYDNLPPWTFGGGTKLELK
notes: also called BGT-9D10-2
B13 was tested, and the EC50 [11] was 0.108 µg/mL and 0.54 nM, the EC50 [1] was 2.29 nM and the EC50 [2] was 0.64 nM. The EC50 [12] was 0.12 µg/mL and 0.6 nM.

B14: anti-LRP-8 BGK.6E3.F4 [r/m IgG2a/K] (antibody, V domains shown)
VH: EVQLVESGGGLVQPGKSLKLSCAASGFTFSDYNMAWVRQAPKKGLEWVATIMYDGSRTFYRDSVKGRYTFSRDNAKSTLYLQMDSLRSEDTATYYCATGRNWFAYWGQGTLVTVSS
VL: DIIMTQSPSSLAVSAGETVTINCKSSQSLLSSGKQKNYLAWYQQKPGQSPKLLIYLASTRESGVPDRFIGSGSGTDFTLTISSMQAEDLAIYYCQQHYDTPLTFGSGTKLEIK
notes: as for B9
With B14 the “fold over isotype control” value [8] was 0.41 fold, the “fold over isotype control” value [9] was 1.02 fold and the EC50 [1] was 0.11 nM. The “fold over isotype control” value [10] was 0.87 fold and the EC50 [2] was 0.25 nM.

B15: anti-LRP-8 BGK.2C8.E6.D3 [r/m IgG2a/K] (antibody, V domains shown)
VH: QVTLKESGPGILQPSQTLSLTCTFSGFSLNTYGMGVGWVRQPSGKGLEWLANIWWDDDKFYNPSLKNRLTVSKDTSNNQAFLRITNGDTADTATYFCARILGEDIGGALDAWGQGTSVTVSS
VL: DTVLTQSPALAVSPGERVSISCRASEGVNSYMHWYQQNPGQQSKLLIYRTSNLASGVPARFGGSGSGTDFTLTIDPVEADDTATYFCQQSWNDPPTFGGGTKLELK
For B15, the “fold over isotype control” value [8] was 5.16 fold, the “fold over isotype control” value [9] was 13.8 fold and the EC50 [1] was 0.1 nM. The “fold over isotype control” value [10] was 13.7 fold and the EC50 [2] was 0.31 nM.
